These results are taken from paper PMC3897949, “Dimeric structure of p300/CBP associated factor” (BMC Structural Biology, 2014).

Positions count from the first letter of the chain named. Names and notes keep the numbering of the source.

This series deals with the molecule itself. The experiment in a line: cross-linking; 1 mg/ml protein in 50 mM HEPES pH7.5, 50 mM sodium sulfate; DSS at 5X molar concentration, 1 h at room temperature; SDS-PAGE, coomassie blue.

B1: PCAF HAT domain (amino acids 493-658) L512A/M513A/V516A (domain or fragment, human, UniProt Q92831 493-658, looked up)
chain: VIEFHVVGNSLNQKPNKKIAAWLAGLQNVFSHQLPRMPKEYITRLVFDPKHKTLALIKDGRVIGGICFRMFPSQGFTEIVFCAVTSNEQVKGYGTHLMNHLKEYHIKHDILNFLTYADEYAIGYFKKQGFSKEIKIPKTKYVGYIKDYEGATLMGCELNPRIPYTE
notes: p300/CBP associated factor (PCAF, KAT2B), human, HAT domain, residues 493-658; also called LMV512AAA
Consider B1, for which the binding result is reported as “binds”.

B2: PCAF HAT domain (amino acids 493-658) L512D/V516D (domain or fragment, human, UniProt Q92831 493-658, looked up)
chain: B1 chain with A20D, A21M, A24D
notes: p300/CBP associated factor (PCAF, KAT2B), human, HAT domain, residues 493-658; also called LV512DD
B2: the binding result is reported as “binds”.

B3: PCAF HAT domain (amino acids 493-658) F539A (domain or fragment, human, UniProt Q92831 493-658, looked up)
chain: B1 chain with A20L, A21M, A24V, F47A
notes: p300/CBP associated factor (PCAF, KAT2B), human, HAT domain, residues 493-658
Take B3: the binding result is on record as “binds”.

B4: PCAF HAT domain (amino acids 493-658) L512D/V516D/F539A (domain or fragment, human, UniProt Q92831 493-658, looked up)
chain: B1 chain with A20D, A21M, A24D, F47A
notes: p300/CBP associated factor (PCAF, KAT2B), human, HAT domain, residues 493-658; also called LVF512DDA
B4: the binding result is given as “binds”.
